Reference: publication PMC9519379 (Cell Reports Medicine, 2022)
Several values for one entry are separate records, joined by “and”; a condition that tells them apart may be missing. Identical values can stand only once.

Target: the molecule itself

B1: H84T-banana lectin (H84T-BanLec) (designed binder)
chain: MNGAIKVGAWGGNGGSAFDMGPAYRIISVKIFSGDVVDAVDVTFTYYGKTETRHFGGSGGTPHEIVLQEGEYLVGMKGEFGNYTGVVVVGKLGFSTNKKSYGPFGNTGGTPFSLPIAAGKISGFFGRGGDFIDAIGVYLEP
- stoichiometry N: 2 and 4
